The target of the assay is truncated human FcRH5 (deletion of amino acids 1-744) with N-terminal gD tag (human) (UniProt Q96RD9). Briefly: cell-based or functional assay.
Chain of truncated human FcRH5 (deletion of amino acids 1-744) with N-terminal gD tag (human) (Q96RD9 745-977, stated change not applied): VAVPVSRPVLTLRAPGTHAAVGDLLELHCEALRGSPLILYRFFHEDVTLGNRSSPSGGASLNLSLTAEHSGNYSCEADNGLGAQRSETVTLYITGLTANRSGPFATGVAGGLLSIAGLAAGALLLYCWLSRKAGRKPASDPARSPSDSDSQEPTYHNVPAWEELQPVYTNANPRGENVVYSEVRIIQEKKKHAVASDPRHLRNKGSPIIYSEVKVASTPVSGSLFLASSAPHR

In turn, “anti-gD/UCHT1.v9 TDB (bispecific antibody)” displayed a target cell killing, EC50 of 0.19 nM.

The values are drawn from US20220048993A1.
